Test results as given in the DeepSol protein solubility set.

assay: soluble on expression in E. coli; label from the status in PepcDB or PDB records

Sequence | soluble on expression in E. coli
MGLYLKGPSYKQVARILGMSHYRMKMLAMKKREVDDTVTKINGERRYLWAAIDVESREILAILEHHHHHH | not soluble
MGSDKIHHHHHHSCGDKMNKNTGALEFDSIQVNETAHLFGDTAKPACNLTINFAYPVKSTDNKLKDSLNSYFIAACFGEGYIGEKPAQVVKEYTEHYVKEYRTDLEPMYAEDEKNKESEGSIGAWYSYYKGIESHVQLYYKNLLVYRINYNEYTGGAHGIYMTTFLNMDLINLRPLKLDDIFTGDYKEALTDLLWNQLMADKKVTTHEALEDMGYGSTGDIAPTENFYLDKDGITFYYNVYDITPYAMGPVEIKIPYEMMEHMLGSNPIIGEMKSK | not soluble
MPSAAPSSSVLLVQISDSHLFAEADGALLGMSTRDSLEKVVDLVLAEQPQVDLVVASGDISQDGSVESYEAFRRISTQIAAPARWFAGNHDELPQMEHVAQAEGLLEPIINIGRWRVTLLDSAVPGSVPGFLAAGQLQLLEQSLSEAPDRHHLVCLHHHPVAIGCEWMTPIGLRNADALFAVLDRFPQVRAVLWGHVHQEFDQMRNGVRLLASPSTCIQFAPGSADFKVDTTAPGYRWLRLHDDGRLETAVSRVVGMQFEVDYGGTGY | not soluble
SDQGLIFTNHHCGYGAIQSQSTVDHDYLRDGFVSRTMGEELPIPGLSVKYLRKIVKVTDKVEGQLKGITDEMERLRKAQEVCQELAKKENADENQLCIVEPFYSNNEYFLIVYDVFKDVRMVFAPPSSVGKFGGDTDNWMWPRHTGDFSVFRVYAGADNRPAEYSKDNKPYKPVYFAAVSMQGYKADDYAMTIGFPGSTDRYLTSWGVEDRIENENNPRIEVRGIKQGIWKEAMSADQATRIKYASKYAQSANYWKNSIGMNRGLARLDVIGRKRAEERAFADWIRKNGKSAVYGDVLSSLEKAYKEGAKANREMTYLSETLFGGTEVVRFAQFANALATNPDAHAGILKSLDDKYKDYLPSLDRKVLPAMLDIVRRRIPADKLPDIFKNVIDKKFKGDTKKYADFVFDKSVVPYSDKFHAMLKSMDKEKFAKAIEKDPAVELSKSVIAAARAIQADAMANAYAIEKGKRLFFAGLREMYPGRALPSDANFTMRMSYGSIKGYEPQDGAWYNYHTTGKGVLEKQDPKSDEFAVQENILDLFRTKNYGRYAENGQLHIAFLSNNDITGGNSGSPVFDKNGRLIGLAFDGNWEAMSGDIEFEPDLQRTISVDIRYVLFMIDKWGQCPRLIQELKLI | not soluble
GIEIVNRKAVWYLTSEIKETETGIEVSAGELHKGDEEVFPVEEVSFDLTPDDTYPVEYMLYLHMNVQTKKVSWSLCKAYLDGEGYCDYQGNERLIMYPVSVTVFPNGTREGTIFLYEKEDREPDRKPPVIVEPQPVGEIGTPDIDE | soluble
SNAMNLNQLDIIVSNVPQVCADLEHILDKKADYANDGFAQFTIGSHCLMLSQNHLVPLENFQSGIIIHIEVEDVDQNYKRLNELGIKVLHGPTVTDWGTESLLVQGPAGLVLDFYRMK | soluble
MKMNPRCTYCLLSRVHFQSKLSTDDEDLISRTIHECLGVMNKHYSPEAVSSRVATKVHRKCYEVLRDSDPYEVTKKLINQAALKVLPAAKEKIYENSPDDGELFKRAVLASVIANYFDFGIMGFDASEDKFEAAFLKYYEQGLDVDDTPEMLGLLQDVVYIADNCGEILFDAIVFDVIKKLGGNITLVVRGGPILTDVTLEEIKEFEIDKKVDRVMTTGSNAVGVLVEEAPAELLDAMKNATLIISKGMANYETLSEHNFGPIAYMLLTKCECVAEDLGLETGLSVAKLMNFPLEHHHHHH | soluble
MGSDKIHHHHHHMALIEVQNLKKYFPVKQGPIDVLLRKPRKFVKAVDGVNFQIDEGKSLGLVGESGSGKTTTGRVILRLEEPTDGKIIFDGRDITKLSKEEMRKLRKEMQIIFQDPMASLNPYMRVGKAIEHALEIHGIGDRSSRKEMVLEMLRRVNLEPAEDIYRRYPRELSGGQRQRVVIARALILKPRLVVADEAVAMLDVSVRSQLLRLLQELRKEFNLTMLFITHDLATTKYVCDEIAVMYLGKIVEIGDFEDIYLNPKHPYTQALISAVPEPSLKKKKKFIPEGETPNPIDVPSGCRFHPRCPYRMDICMKEEPQLKAVEENHKVACHLYN | not soluble
MTYETVERSKKSQVNLNNKEPFSVLLLGIDTGDDGRVEQGRSDTTIVATVNPRDKQTTLVSLARDTYVDIPGQGKQDKLNHAYAFGGASLAMDTVENYLNIPINHYVSINMAGLKELVNAVGGIEVNNNLTFSQDGYDFTIGKISLDGEQALSYSRMRYEDPNGDYGRQERQRKVIEGIVQKVLSLNSVSNYQEILTAVSDNMKTDLSFDDMKKIALDYRSAFGKVKQDQLQGTGFMQDGVSYQRVDEQELTRVQQELKNQLNTKLEHHHHHH | soluble
GPGSMDRSVAESIRQQSDDLRDELKELEQWEDAMQAREMAKAQRKVPLPTSVAAAEPPIRGTVPSLKEAIRQQQQQARATGTSGDTAAEAIADPIQQAKDKGNVLFQSGHLQEAVAAYTVGIDLDPASATTHVLYANRAMCYLKLGQWTAAEKDATTCVHMNTGYAKAYYRRAVARKQLGKLREARADLEAVLALAPKDVSAQQEMESVTKALQAKRAAESQATTTATTTKKKRIVIEEVDSEGDEAAAEAPATSASKLSTEEEELHQACIEEDMRRLAAARKANEEQVRQEAQREAAAQAKRQRRHERVEIIEEAEHSPAEKKKMAPSPATSSPVVEQTPPLSTSSPPSSSSPSPTSAATRPRARPPIAKESLTAPKSFSEFERRFRELVQQPDLRDHYVRLLDPATMAKLFGSNMSPEMLLGILQAIKTFNATTALQYAKGLCQVSRVEDVALFFDAQEKAVVQDVLDLLRSAPGTPAKDIQQIERKLKPL | soluble
MTESVFAVVVTHRRPDELAKSLDVLTAQTRLPDHLIVVDNDGCGDSPVRELVAGQPIATTYLGSRRNLGGAGGFALGMLHALAQGADWVWLADDDGHAQDARVLATLLACAEKYSLAEVSPMVCNIDDPTRLAFPLRRGLVWRRRASELRTEAGQELLPGIASLFNGALFRASTLAAIGVPDLRLFIRGDEVEMHRRLIRSGLPFGTCLDAAYLHPCGSDEFKPILCGRMHAQYPDDPGKRFFTYRNRGYVLSQPGLRKLLAQEWLRFGWFFLVTRRDPKGLWEWIRLRRLGRREKFGKPGGSA | soluble
MYVTVTEAAYKKIMDTIPSEAKYIKLFYDNEGCGCVMSGIIDLVAVAEKDERDVDIESSTMNFIADRTKLVFMDDKLTVDWHEGGGTFQLKSPSQFYNPNMKLHVRVLEHHHHHH | soluble
MGHHHHHHSHMSNPRSLEEEKYDMSGARLALILCVTKAREGSEEDLDALEHMFRQLRFESTMKRDPTAEQFQEELEKFQQAIDSREDPVSCAFVVLMAHGREGFLKGEDGEMVKLENLFEALNNKNCQALRAKPKVYIIQACRGEQRDPGETVGGDEIVMVIKDSPQTIPTYTDALHVYSTVEGYIAYRHDQKGSCFIQTLVDVFTKRKGHILELLTEVTRRMAEAELVQEGKARKTNPEIQSTLRKRLYLQ | not soluble
MVTKFLIFVSENQQLTSKFNLVTRQNADLKIGLRGVLFSIQGLREELSVAKQRIEEMKEDSFFESMPKLEREAPAFMDSPAETSSPDVEMEDVVYEEVVKETEVANF | not soluble
MSLQIKSIKAYHVVQPFVDGPYRMSKGRQADAFDAVIVAITADSGLTGWGEMAPLGNFYSAAFPAGARAGVPEIAPHLIGHDPRGLASIGRLMDTVFKGHPYIKSALDMACWDLAARAAGVPLVTMLGGRESDMAETYRVVTHGTLDQMAALAKRIIAEGCRRLQVKVGGNVHDDIERVTTVASAVPKGTVIFCDANAGWTPYQARQFADATRGIDYTFEQPCTTIEENMSVRRMLDKPMVLDESVTSLEEMLEIHRLGAADGLTLKISRLGGVTRTRQIRDVAVDLGFMITVEDTGGAEIDTAAMAHLSLSTPQERRLHAIAFHEWVTVRTAFNAPPVTGSHMGIPDGPGLGIDVDPSLLGKPFFEIGEGHHHHHH | soluble
METAWSNILNYKNVSDRYILTEKDKKGAFTRQYFEVYEARLKELKPRILENAEREIGKGKFTHSQLSDAKQDEEIFVVGVIVKRIAARPSILKSLLNEDKVAYDDYEEDAEEDEVKRYAGSIEDRIELESDKQTVRLEGNISMDECATGCCVGVLGKLGKEGVFHVNRLVWPSVKVPKKVAVDGTIAFVSGLDLTGDLEDDRLTISGLEFMADWMNVQVGNENQCPPIDRLVVIGPLVETKSNGCDVQSVVRTLTLSRAEKHSSTASLITVDKIINSIAEKPLVNTVDVTPGVGDPCSSMWPLPPIHRVCLPRCGMSDKKVNLVTNPYEFEVNGLRVMTMSGENVSELLRTSLKWTGADAIENIIKWQHVAPNCPDTLDAFPVAERDPLIMDITPHVIICGNQPHAEFRHIPIDGSNCLVVCLPKFSKTRVACFLNLSDLSLKWQNFDHQF | not soluble
MGSDKIHHHHHHMFPDGEISDVVVIGGGPAGAICALALARAGVDVKLMYWGGYAPGGIELVSGRGRHFIEQYCPDFFSEVVHGIEIHETASLWDTAEPVIFNAMFNPWGAGVAIERSLLDGALRNLASGAGGTIIPDAKVVDVERQHDRWRLIARSSEDASSNETTSRAGEFAIYARFIVLATGRVPLPFFDHAPVAESSQIALMTSLQARIAPRHTLYVEGTRNGWWYALPAEKGYFASFCIGRNELKQRQSRLKDFFFQELQCTRLLAPLSAGAFDQRPIAGRMAGATMFPAMGGDAWIAVGDATAAPDPLSGTGIEWAIESAQLGADMLLEALHGSKGNVLFDLPRYENTIRRRIAAQEKTAAYHYHRLKEIRET | not soluble
NTRLLEEIEERRRSERFFHATIDSLTAPVAILNGEGDIVTVNRAWRKFADENGGLHPNHFIGYNYLGLCDNVKGDDAVTASAVARGIRELIAGRINEFHVDYPCHSPDEQRWFQVRVTRLENGSRGRVAVVHENIS | not soluble
MAFSRTHSLLARAGSTSTYKRVWRYWYPLMTRGLGNDEIVFINWAYEEDPPMDLPLEASDEPNRAHINLYHRTATQVDLGGKQVLEVSCGHGGGASYLTRTLHPASYTGLDLNQAGIKLCKKRHRLPGLDFVRGDAENLPFDDESFDVVLNVEASHCYPHFRRFLAEVVRVLRPGGYFPYADLRPNNEIAAWEADLAATPLRQLSQRQINAEVLRGIGNNSQKSRDLVDRHLPAFLRFAGREFIGVQGTQLSRYLEGGELSYRMYCFTKD | not soluble
MGSDKIHHHHHHMTSFNSNELQKLYIAFFGRPCDPAGMNYWLSKSEDKANLIDVAKAFSSQEEYKKSLTSVNSIEFQINQIYLNLFARKADFDSLNTWSLKCKRGELKIYELASMLTIEQSNIEEKIDNISLKDVEVLEKKVQAAQLFTDQISKDICWINAYKPDSIDPWILGKALQVGINYLNKVDSSYHLDKYAVTEILHKMSFEKINTSTKAIIKIRNLSLTIPISFKHDQKLSNLLTKGVLNSIIGGQLVKNKTTTKIEALRNINLTIMNGERVALIGHNGSGKTSFLKVISGIYLPTEGDLDVEVDVYPMLQKSFLTSTDLTGVDAAKAHYLLVNKSLNGFDQFLQDIIEFSGLGEFISLPIKTYSEGMSARLIFSILTSIPHDCLAIDEGFGTGDSDFFERAEKRMKSFMNSSGTLILASHSEHLLKQFCTRGIVFNHGQVVYDGSLDASLNYYHTHDYIHSNDN | not soluble
MSNKNYVFEEAKESLSSILFNGDSDRTEAGFFDGSVESWNDEDMIDGAKWVDRLVSEMTKAINIDDMRRRVAVILEALESIIKKNTNASKKLEYASMKESLQSLINDNQILKRVIANQHQRSSENEEKAKQVLHLRGVVGQYQEQVHKLELSNYAMKLHLQRSQQQQTSFSGNLPPDIY | soluble
